Paper PMC3295762, “Gene Expression of the Tumour Suppressor LKB1 Is Mediated by Sp1, NF-Y and FOXO Transcription Factors”

Key:
GST-FOXO3 [1] = target: T1, GST-FOXO3 (UniProt O43524 1-673); assay: competition; unlabeled excess vs N1 probe; EMSA: 10% glycerol, 12 mM HEPES pH 7.9, 4 mM Tris-HCl pH 7.9, 60 mM KCl, 1 mM DTT, 0.6 mg/ml BSA, 0.5 ug poly(dI-dC), 20 ul, 30 min at 25 C; supershift 1 h at 4 C; settings: protein: commercial; tags: GST; blunt
GST-FOXO3 [2] = target: T1, GST-FOXO3; assay: EMSA; EMSA: 10% glycerol, 12 mM HEPES pH 7.9, 4 mM Tris-HCl pH 7.9, 60 mM KCl, 1 mM DTT, 0.6 mg/ml BSA, 0.5 ug poly(dI-dC), 20 ul, 30 min at 25 C; supershift 1 h at 4 C; settings: protein: commercial; tags: GST; label: 32P; blunt

T1 sequence (O43524 whole entry): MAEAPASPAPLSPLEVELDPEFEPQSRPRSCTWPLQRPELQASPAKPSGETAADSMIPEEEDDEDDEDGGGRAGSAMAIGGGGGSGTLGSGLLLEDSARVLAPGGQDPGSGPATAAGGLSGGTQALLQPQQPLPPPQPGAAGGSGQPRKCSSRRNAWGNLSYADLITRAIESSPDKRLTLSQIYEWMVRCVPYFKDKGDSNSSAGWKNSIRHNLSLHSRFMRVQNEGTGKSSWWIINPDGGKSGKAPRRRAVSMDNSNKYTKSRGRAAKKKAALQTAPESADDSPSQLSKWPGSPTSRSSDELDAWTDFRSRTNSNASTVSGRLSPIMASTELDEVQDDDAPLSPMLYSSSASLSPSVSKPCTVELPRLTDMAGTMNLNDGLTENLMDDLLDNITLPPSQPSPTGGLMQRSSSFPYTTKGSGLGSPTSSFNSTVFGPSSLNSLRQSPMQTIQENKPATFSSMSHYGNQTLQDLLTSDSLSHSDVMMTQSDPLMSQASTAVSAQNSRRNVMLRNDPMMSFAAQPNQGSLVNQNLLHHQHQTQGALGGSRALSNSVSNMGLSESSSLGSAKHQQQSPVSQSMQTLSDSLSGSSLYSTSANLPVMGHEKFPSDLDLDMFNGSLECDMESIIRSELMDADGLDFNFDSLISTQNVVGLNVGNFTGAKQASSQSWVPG

B1: LKB1 FOXO site oligo mutant (dsDNA)
DNA 1: GGGGAGGGAGGTAGCCAAGATGGCGGC
DNA 2: GCCGCCATCTTGGCTACCTCCCTCCCC
- binding result (GST-FOXO3 [1]): no binding

B2: LKB1 FOXO site oligo WT (dsDNA)
DNA 1: GGGGAGGGAGGTAAACAAGATGGCGGC
DNA 2: GCCGCCATCTTGTTTACCTCCCTCCCC
- binding result (GST-FOXO3 [2]): binds
